{
  "source": "paper PMC12242641",
  "about": "(ACS Omega, 2025)",
  "proteins": {"B1": {"name": "human tripartite motif-containing protein 25 (TRIM25), residues 183-380 (domain or fragment, UniProt Q14258 183-380, looked up)", "chain": "HKTCSPASLSQASADLEATLRHKLTVMYSQINGASRALDDVRNRQQDVRMTANRKVEQLQQEYTEMKALLDASETTSTRKIKEEEKRVNSKFDTIYQILLKKKSEIQTLKEEIEQSLTKRDEFEFLEKASKLRGISTKPVYIPEVELNHKLIKGIHQSTIDLKNELKQCIGRLQEPTPSSGDPGEHDPASTHKSTRPV", "notes": "not shown: His6, N-terminal, cleaved; SUMO, N-terminal, cleaved"}},
  "molecular_target": "the molecule itself",
  "assay": "[…]; 20 mM sodium phosphate pH 7, 100 mM NaCl, 2 mM TCEP",
  "data": [
    {"protein": "B1", "values": [
      {"measurement": "stoichiometry N", "value": 2}
    ]}
  ]
}
